Experimental data taken from US20260029399A1.

What was measured:
Experiment in all cases: cell-based or functional assay
[1] = target: T1, IL-13Rα1 receptor on Jurkat cells (UniProt P78552)
T1 sequence: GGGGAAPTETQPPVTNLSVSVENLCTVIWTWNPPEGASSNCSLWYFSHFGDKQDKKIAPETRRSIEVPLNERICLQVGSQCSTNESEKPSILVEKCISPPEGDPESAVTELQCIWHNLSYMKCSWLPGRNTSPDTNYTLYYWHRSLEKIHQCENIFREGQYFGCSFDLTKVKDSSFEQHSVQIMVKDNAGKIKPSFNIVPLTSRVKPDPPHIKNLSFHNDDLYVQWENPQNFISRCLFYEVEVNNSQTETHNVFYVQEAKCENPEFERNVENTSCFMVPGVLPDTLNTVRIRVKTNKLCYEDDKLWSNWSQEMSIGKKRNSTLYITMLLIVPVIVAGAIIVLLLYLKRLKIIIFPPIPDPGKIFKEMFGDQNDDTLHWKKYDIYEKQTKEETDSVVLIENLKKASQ

[2] = target: CMV C7 TCR on C7 TCR-expressing T cells
Sequence of CMV C7 TCR on C7 TCR-expressing T cells (chain, as listed by the source): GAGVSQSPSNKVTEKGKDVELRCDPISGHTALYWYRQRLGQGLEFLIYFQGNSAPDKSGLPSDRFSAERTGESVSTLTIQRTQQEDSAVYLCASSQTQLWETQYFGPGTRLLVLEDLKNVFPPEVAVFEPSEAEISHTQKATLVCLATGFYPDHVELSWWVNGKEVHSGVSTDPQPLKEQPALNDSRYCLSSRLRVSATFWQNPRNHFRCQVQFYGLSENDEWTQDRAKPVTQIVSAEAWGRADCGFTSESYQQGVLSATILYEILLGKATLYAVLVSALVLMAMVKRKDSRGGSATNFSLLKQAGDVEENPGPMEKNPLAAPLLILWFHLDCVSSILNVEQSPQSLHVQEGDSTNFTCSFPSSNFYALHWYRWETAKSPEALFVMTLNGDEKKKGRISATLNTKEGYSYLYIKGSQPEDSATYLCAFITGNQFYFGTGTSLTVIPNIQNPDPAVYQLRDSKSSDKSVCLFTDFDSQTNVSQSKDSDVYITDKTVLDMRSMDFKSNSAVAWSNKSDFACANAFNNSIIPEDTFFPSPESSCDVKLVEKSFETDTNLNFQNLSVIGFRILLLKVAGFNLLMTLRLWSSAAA

[3] = target: IG4 TCR (variant not stated) on IG4 TCR-expressing T cells
[4] = target: 868 TCR (Beta Chain-P2A-Alpha Chain) on 868 TCR-expressing T cells
Sequence of 868 TCR (Beta Chain-P2A-Alpha Chain) on 868 TCR-expressing T cells (chain, as listed by the source): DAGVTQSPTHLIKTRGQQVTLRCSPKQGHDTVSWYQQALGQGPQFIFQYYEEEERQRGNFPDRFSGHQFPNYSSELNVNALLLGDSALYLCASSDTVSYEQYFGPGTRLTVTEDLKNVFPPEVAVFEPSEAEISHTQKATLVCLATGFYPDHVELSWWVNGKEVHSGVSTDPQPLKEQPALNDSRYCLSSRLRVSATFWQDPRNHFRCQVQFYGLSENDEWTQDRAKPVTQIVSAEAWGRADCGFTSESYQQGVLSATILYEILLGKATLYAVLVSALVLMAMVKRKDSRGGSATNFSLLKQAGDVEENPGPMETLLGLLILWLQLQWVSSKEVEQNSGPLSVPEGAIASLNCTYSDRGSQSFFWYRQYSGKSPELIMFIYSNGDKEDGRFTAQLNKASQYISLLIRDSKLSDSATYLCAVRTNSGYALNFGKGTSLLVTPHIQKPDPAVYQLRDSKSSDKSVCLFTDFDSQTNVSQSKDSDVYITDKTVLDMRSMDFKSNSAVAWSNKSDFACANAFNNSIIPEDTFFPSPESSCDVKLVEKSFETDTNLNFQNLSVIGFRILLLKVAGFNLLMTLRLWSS

In the case of “IL-13 - CD8α stalk linker (SEQ ID NO: 4) - PDGFR transmembrane domain, displayed on lentivirus (from UniProt P35225 35-146) (ligand)”, the infection of Jurkat cells bearing the IL13Rα1 receptor (GFP reporter) [1] is reported as 88.5%.

Substance “IL-13 - GAPGAS linker (SEQ ID NO: 5) - PDGFR transmembrane domain, displayed on lentivirus (from UniProt P35225 35-146) (ligand)” has an infection of Jurkat cells bearing the IL13Rα1 receptor (GFP reporter) [1] of 1%.

“IL-13 - PDGFR linker (SEQ ID NO: 3) - PDGFR transmembrane domain, displayed on lentivirus (from UniProt P35225 35-146) (ligand)” was tested, and the infection of Jurkat cells bearing the IL13Rα1 receptor (GFP reporter) [1] was 6.1%.

“IL-13 extracellular targeting domain: full-length IL-13 - IgG4 hinge linker - PDGFR transmembrane domain, displayed on lentivirus (from UniProt P35225 35-146) (ligand)” showed a transduction (cells expressing the GFP reporter after mixing) [1] of 85.2%.

Substance “disulfide-stabilized CMV NLV pMHC displayed on lentivirus (peptide-MHC)” has a transduction rate [2] of 21.8%.

In the case of “disulfide-stabilized NYESO-1 pMHC displayed on lentivirus (peptide-MHC)”, the transduction rate [3] is reported as 19%.

Work on “disulfide-stabilized SL9 pMHC displayed on lentivirus (peptide-MHC)” yielded a transduction rate [4] of 22.1%.
